Data taken from CN1800373A (RADIOLOGY INST OF PLA MILITARY, dated 2006).

What was measured:
[1] = molecular target: VEGFR-3/Ig重组蛋白 (R&D research system corp.) (human) (UniProt P35916); assay: ELISA, coated VEGFR-3/Fc 0.5 μg/mL, negative control
正常人IgG (北京中杉金桥有限公司) = assay: ELISA, coated normal human IgG 0.5 μg/mL, negative control
[2] = molecular target: VEGFR-3/Ig重组蛋白 (R&D research system corp.) (human) (UniProt P35916); assay: ELISA, coated VEGFR-3/Fc 0.5 μg/mL, scFv at 13 μg/mL
[3] = molecular target: VEGFR-3/Ig重组蛋白 (R&D research system corp.) (human) (UniProt P35916); assay: ELISA, coated VEGFR-3/Fc 0.5 μg/mL, scFv at 65 μg/mL
[4] = molecular target: VEGFR-3/Ig重组蛋白 (R&D research system corp.) (human) (UniProt P35916); assay: ELISA, coated VEGFR-3/Fc 0.5 μg/mL, scFv at 6.5 μg/mL
HEL细胞表面表达的VEGFR-3 = molecular target: T1, HEL细胞表面表达的VEGFR-3 (human, UniProt P35916 25-1363); assay: Western blot of HEL cell lysate (Fig. 4)
T1 construct: whole, on cells; On whole HEL cells in flow cytometry; in HEL cell lysate in the immunoblot; also called VEGFR-3多肽 (175kDa, 125kDa bands of HEL lysate)

[5] = molecular target: VEGFR-3/Ig重组蛋白 (R&D research system corp.) (human) (UniProt P35916); assay: ELISA, coated VEGFR-3/Fc 0.5 μg/mL, supernatant of hybridoma BDD073
[6] = molecular target: T2, VEGFR-3/Ig重组蛋白 (R&D research system corp.) (human, UniProt P35916 25-776); assay: ELISA-type assay, OD450; VEGFR-3/Fc 1 and 2 μg/mL mixed with 20 μg/mL GST-VEGF-D (Fig. 1)
T2 construct: Bought protein; also called VEGFR-3/Fc; VEGFR-3/IgG; not shown: Ig/Fc part of the bought fusion
T2 sequence (looked up): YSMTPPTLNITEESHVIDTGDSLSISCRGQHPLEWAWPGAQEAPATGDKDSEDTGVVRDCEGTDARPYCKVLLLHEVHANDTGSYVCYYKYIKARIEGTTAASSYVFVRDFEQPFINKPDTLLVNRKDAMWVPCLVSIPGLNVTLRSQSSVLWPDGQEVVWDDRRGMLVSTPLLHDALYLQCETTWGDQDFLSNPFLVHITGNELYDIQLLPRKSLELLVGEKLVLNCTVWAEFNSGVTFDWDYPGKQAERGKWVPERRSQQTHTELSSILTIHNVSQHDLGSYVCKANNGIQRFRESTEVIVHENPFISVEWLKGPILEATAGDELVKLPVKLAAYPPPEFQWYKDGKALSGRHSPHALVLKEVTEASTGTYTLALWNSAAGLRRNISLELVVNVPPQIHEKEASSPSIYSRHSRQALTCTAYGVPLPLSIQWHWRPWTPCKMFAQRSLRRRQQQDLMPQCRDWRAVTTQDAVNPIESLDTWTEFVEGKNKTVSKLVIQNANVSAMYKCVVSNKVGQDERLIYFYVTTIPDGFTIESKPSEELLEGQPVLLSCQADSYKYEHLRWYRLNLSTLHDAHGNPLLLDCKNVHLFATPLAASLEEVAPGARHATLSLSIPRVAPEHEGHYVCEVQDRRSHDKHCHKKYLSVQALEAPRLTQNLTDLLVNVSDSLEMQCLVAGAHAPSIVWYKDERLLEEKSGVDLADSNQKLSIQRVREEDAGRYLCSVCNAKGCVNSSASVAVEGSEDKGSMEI

正常鼠血清(1∶1000)
OD 450 [1]: 0.05 OD450 | OD 450 (正常人IgG (北京中杉金桥有限公司)): 0.064 OD450

B1: 可溶性抗VEGFR-3单链抗体VL-linker-VH (scFv, not shown: large carriers)
scFv: DIVLTQSPASLAVSLGQRATISCRASKSVSTFGYSYMHWYQQKPGQPPKLLIYLASNLESGVPARFSGSGSGTDFTLNIHPVEEEDAATYYCQHSRELMYTFGGGTKLEIKRGGGGSGGGGSGGSQVQLQESGGGLVRPRGSLKLSCAASGFTFNTYAMNWVRQAPGKGLEWIARIRNKSNNYATYYANSVKDRFTISRGDSQSMLYLQMNNLKTEDTAMYYCVRDGYSLVHWGHGTLVTVS
OD 450 [2]: 0.73 OD450 | OD 450 [3]: 1.01 OD450 | OD 450 [4]: 0.515 OD450

B2: 抗人VEGFR-3的单克隆抗体ABDD073 (antibody, mouse IgG2a, V domains shown)
VH: QVQLQESGGGLVRPRGSLKLSCAASGFTFNTYAMNWVRQAPGKGLEWIARIRNKSNNYATYYANSVKDRFTISRGDSQSMLYLQMNNLKTEDTAMYYCVRDGYSLVHWGHGTLVTVS
VL: DIVLTQSPASLAVSLGQRATISCRASKSVSTFGYSYMHWYQQKPGQPPKLLIYLASNLESGVPARFSGSGSGTDFTLNIHPVEEEDAATYYCQHSRELMYTFGGGTKLEIKR
notes: The 132-residue entry was amplified with a primer that starts at ATG, so it may hold a leader; also called BDD073上清; monoclonal antibody of hybridoma BDD073 CGMCC No.1537
binding result (HEL细胞表面表达的VEGFR-3): binds | OD 450 [5]: 0.889 OD450

B3: 重组人GST-VEGF-D (ligand, human, UniProt O43915 89-205, looked up)
chain: FAATFYDIETLKVIDEEWQRTQCSPRETCVEVASELGKSTNTFFKPPCVNVFRCGGCCNEESLICMNTSTSYISKQLFEISVPLTSVPELVPVKVANHTGCKCLPTAPRHPYSIIRR
notes: domain: VHD; Expressed in E. coli BL21(DE3), 38 kD, purified on a GST column; not shown: GST tag encoded by vector pGEX-5X-1 (Amersham)
binding result [6]: binds
